Test results reported in publication doi:10.1101/2023.02.03.526778.

Biological target: His-tagged recombinant human LDLR (extracellular domain, hLDLR-ECD) (human) (UniProt P01130)
Test: SPR

Chain of UniProt P01130 (P01130 22-788): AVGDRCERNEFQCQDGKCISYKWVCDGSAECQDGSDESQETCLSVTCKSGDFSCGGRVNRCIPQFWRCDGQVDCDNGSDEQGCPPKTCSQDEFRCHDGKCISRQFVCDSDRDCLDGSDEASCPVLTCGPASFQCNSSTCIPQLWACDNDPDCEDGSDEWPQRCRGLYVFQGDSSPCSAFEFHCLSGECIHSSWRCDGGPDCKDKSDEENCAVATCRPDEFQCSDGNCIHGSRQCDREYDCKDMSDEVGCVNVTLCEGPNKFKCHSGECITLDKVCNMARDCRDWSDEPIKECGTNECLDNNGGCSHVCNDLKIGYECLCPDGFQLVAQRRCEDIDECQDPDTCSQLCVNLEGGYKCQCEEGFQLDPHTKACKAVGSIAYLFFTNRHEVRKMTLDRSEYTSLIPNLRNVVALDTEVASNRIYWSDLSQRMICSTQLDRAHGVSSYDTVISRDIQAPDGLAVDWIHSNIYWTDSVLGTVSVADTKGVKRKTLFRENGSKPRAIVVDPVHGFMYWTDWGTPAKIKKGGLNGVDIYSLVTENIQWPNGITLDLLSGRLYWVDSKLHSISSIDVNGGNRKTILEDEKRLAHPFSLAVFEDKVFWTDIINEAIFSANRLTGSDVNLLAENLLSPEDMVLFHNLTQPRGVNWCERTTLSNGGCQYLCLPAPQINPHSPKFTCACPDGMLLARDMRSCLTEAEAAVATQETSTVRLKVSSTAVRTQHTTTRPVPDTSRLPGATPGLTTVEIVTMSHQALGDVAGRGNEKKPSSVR

Kd: 40.1 nM
Substance: VH4127 peptide (cyclo[(D)-Cys-Met-Thz-Arg-Leu-Arg-Gly-Pen])
